“And” between values parts separate entries of the source, which are not always exact repeats. Equal values may be shown once.
Key:
[1] = test system: Vγ9Vδ2 cells; experiment: Luminex (Vγ9Vδ2): cytokine/chemokine secretion by pre-expanded Vγ9Vδ2 cells; format: cell-based, human; conditions: for GMCSF / ICAM-1 / IFNγ / IL-4 / IL-8 / IL-13 / IL-17A / MIP-1a / MIP-1b / TNFα / sE-selectin / sP-Selectin: 16 hrs, antibodies 10 μg/ml, Zoledronic acid 4 μM, HMBPP 0.5 ng/ml, duplicates, 0 set to 0.1; for cytokine/chemokine secretion, in words: vs isotype (BM4);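 on all read-outs here: Vγ9Vδ2 cells purified from PBMC, activated 48 h with CD3 and CD28 plus IL-2, expanded 14 days in IL-2, then thawed and rested overnight in IL-2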
Description: Briefly, Vγ9Vδ2 cells were isolated from 1 healthy donor (Red Cross Australia) and 1 cancer patient derived PBMC using TCRγ/δ+ T Cell Isolation Kit (Miltenyi). Cells were stimulated for 48 hours in TCRPMI supplemented with 100u/ml IL-2, CD3 (10 μg/ml) and CD28 (1 μg/ml). Cells were washed and grown for 14 days in TCRPMI supplemented with 100u/ml IL-2 at 37 degrees C. and 5% CO2, and then frozen down. […] Vγ9Vδ2 were defrosted and rested overnight in TCRPMI supplemented with 50u/ml IL-2 at 37 degrees C. and 5% CO2. […] All samples were run with appropriate controls and standards.

[2] = target: BTN2A1 B30.2 domain (Homo sapiens, UniProt Q7KYR7); conditions: ITC, 25° C., B30.2 domain 100 μM, pAg 2 mM
Sequence of BTN2A1 B30.2 domain (Q7KYR7 310-506 limits assumed): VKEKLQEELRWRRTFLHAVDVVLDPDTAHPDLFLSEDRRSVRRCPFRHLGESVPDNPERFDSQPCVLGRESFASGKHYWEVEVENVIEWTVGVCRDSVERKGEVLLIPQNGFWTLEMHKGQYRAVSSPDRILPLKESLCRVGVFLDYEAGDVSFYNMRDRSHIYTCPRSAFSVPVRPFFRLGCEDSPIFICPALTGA
Description: ITC experiments were conducted on a MicroCal ITC200 instrument (GE Healthcare) at 25° C. […] Data were analysed with Microcal Origin software.

[3] = test system: Vγ9^+ T cells; conditions: cited from earlier work
[4] = target: 'hybrid' Vγ9+Vδ1+ γδTCR (TCR #6 γ-chain paired with an irrelevant Vδ1+ chain), soluble ectodomain (human); experiment: SPR, γδTCR ectodomain immobilized on streptavidin chip, soluble BTN2A1 200-3.1 µM, KD derived at equilibrium
Sequence of 'hybrid' Vγ9+Vδ1+ γδTCR (TCR #6 γ-chain paired with an irrelevant Vδ1+ chain), soluble ectodomain (human) (TCR gamma, as listed by the source): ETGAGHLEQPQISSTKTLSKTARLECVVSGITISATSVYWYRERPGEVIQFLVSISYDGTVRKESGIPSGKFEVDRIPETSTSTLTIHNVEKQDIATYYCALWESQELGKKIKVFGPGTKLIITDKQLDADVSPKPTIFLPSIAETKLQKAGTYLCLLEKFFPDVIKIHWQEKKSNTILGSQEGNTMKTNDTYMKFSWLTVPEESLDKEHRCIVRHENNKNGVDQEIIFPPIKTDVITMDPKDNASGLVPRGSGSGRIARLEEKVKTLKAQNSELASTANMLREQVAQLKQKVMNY

[5] = target: 'hybrid' Vγ9+Vδ1+ γδTCR (TCR #6 γ-chain paired with an irrelevant Vδ1+ chain), soluble ectodomain (human); experiment: surface plasmon resonance, binding at equilibrium (saturation plot with Scatchard inset, Expt. 1 and Expt. 2), soluble BTN2A1 200-3.1 µM over immobilized hybrid TCR
[6] = target: T1, human BTN3A1, isoform 1, on cells (human, UniProt O00481 30-513); experiment: FRET between C-terminal CFP/YFP tags on co-transfected NIH-3T3 cells, flow cytometry (FIG. 5D, FIG. 20A)
T1 construct: whole, on cells
T1 sequence (O00481 30-513 limits assumed): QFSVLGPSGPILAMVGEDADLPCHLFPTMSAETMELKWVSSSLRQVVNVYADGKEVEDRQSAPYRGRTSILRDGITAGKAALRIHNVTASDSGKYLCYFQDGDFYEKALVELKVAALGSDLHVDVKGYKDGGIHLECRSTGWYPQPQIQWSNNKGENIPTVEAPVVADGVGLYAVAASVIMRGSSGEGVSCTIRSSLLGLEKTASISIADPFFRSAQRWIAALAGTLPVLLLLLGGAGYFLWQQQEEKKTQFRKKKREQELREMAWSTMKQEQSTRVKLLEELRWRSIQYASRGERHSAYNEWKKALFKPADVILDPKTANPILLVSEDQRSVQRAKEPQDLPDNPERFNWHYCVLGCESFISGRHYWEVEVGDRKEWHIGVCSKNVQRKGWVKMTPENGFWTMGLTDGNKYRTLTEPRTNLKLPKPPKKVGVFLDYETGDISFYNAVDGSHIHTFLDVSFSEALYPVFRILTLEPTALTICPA

[7] = test system: Vδ2^+ γδ T cells among PBMCs; experiment: γδ T cell functional assay: PBMC ± zoledronate ± anti-BTN2A1 mAb; format: cell-based, human; conditions: PBMCs 24 h, 4 μM zoledronate, 10 μg/ml anti-BTN2A1 mAb, compared to isotype control mAb
Description: Fresh PBMC (2×10^6) were cultured in 24 well plates ±zoledronate (4 μM, Sigma) and purified mAb against BTN2A1, BTN3A1, or isotype control IgG1κ (MOPC-21, BioLegend) (10 μg/ml) After 24 h CD3ε^+ γδTCR^+ Vδ2^+/− γδ T cell activation was assessed by flow cytometry and cytokine production was determined by cytometric bead array according to manufacturer instructions (BD). For the assays in FIG. 14, PBMC were cultured in 24 well plates and blocked for 30 min with mAb against BTN2A1, BTN3A1, or isotype control (10 μg/ml). […] Cells were surface-stained and then fixed and permeabilized using Foxp3/Transcription Factor Staining Buffer Set (Invitrogen) according to the manufacturer's protocol followed by staining with anti-IFN-γ (Biolegend). For co-culture assays, purified and in vitro-expanded γδ T cells (5×10^5) were incubated in 96 well plates with APCs (3×10^5) for 24 h ±zoledronate (4 μM), and γδ T cell activation was determined by flow cytometry as above.

[8] = test system: in vitro pre-expanded CD3+Vδ2+ γδ T cells; experiment: HMBPP or anti-CD3/anti-CD28 activation of purified in vitro-expanded Vδ2+ T cells ± neutralizing anti-BTN2A1 mAb; format: cell-based, human; conditions: HMBPP 0.5 ng/ml, 10 μg/ml neutralizing anti-BTN2A1 mAb, no APCs
Description: CD25 expression was determined by flow cytometry, and IFN-γ concentration was determined by cytometric bead array (BD Bioscience) as per manufacturer instructions.

[9] = target: T2, human BTN2A2, isoform 1 (human, UniProt Q8WVV5 33-523); experiment: told in the legend of FIG. 24; data in FIG. 11 (ELISA, transfected cells)
T2 construct: whole, on cells
T2 sequence (looked up): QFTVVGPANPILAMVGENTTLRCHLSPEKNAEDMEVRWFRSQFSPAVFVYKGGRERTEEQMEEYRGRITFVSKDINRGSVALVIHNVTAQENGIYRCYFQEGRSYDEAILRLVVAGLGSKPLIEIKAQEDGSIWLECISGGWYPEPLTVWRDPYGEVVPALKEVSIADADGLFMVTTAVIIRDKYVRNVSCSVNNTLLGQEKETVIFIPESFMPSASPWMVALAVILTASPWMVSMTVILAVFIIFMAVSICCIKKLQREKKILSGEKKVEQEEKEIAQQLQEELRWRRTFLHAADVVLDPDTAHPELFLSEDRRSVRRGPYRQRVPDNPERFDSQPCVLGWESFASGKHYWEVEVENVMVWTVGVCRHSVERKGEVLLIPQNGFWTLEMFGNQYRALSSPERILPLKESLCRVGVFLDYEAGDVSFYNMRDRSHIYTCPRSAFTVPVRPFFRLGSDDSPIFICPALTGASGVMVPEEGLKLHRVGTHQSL
Description: Purified recombinant proteins (0.2-20 μg/ml) were immobilized in microplate wells in PBS buffer overnight at 4° C. Non-specific binding was then blocked by incubation in PBS containing 0.05% tween 20 plus 5% skim milk powder or 0.5% (w/v) bovine serum albumin (BSA). The wells were then incubated for 60 minutes at room temperature in the presence of antibodies at 2-5 μg/mL in PBS/0.05% tween-20/2% skim milk powder or 0.5% BSA, followed by washing in PBS/0.05% tween-20. Plates were then incubated with HRP-labelled sheep anti-mouse IgG secondary antibody (Chemicon), or goat anti-mouse IgG secondary antibody (Millipore) followed by detection using 3,3′,5,5′-tetramethylbenzidine substrate (Sigma) and absorbance was measured at 450 nm using a plate reader.

[10] = γδT cells from patient 1 (melanoma patient)

CC(=CCOP(=O)(O)OP(=O)(O)O)CO [HMBPP, 4-hydroxy-3-methyl-but-2-enyl pyrophosphate, reference compound]
GMCSF ([1]; γδT cells from a healthy donor): 2375.52 pg/mL and 2349.07 pg/mL | ICAM-1 ([1]; γδT cells from a healthy donor): 575.02 pg/mL and 570.14 pg/mL | IFNγ ([1]; γδT cells from a healthy donor): 751.87 pg/mL and 798.38 pg/mL | IL-4 ([1]; γδT cells from a healthy donor): 137.56 pg/mL and 117.91 pg/mL | IL-8 ([1]; γδT cells from a healthy donor): 0.1 pg/mL | IL-13 ([1]; γδT cells from a healthy donor): 84.37 pg/mL and 87.99 pg/mL | IL-17A ([1]; γδT cells from a healthy donor): 8.39 pg/mL and 9.97 pg/mL | MIP-1a ([1]; γδT cells from a healthy donor): 395.47 pg/mL and 392.74 pg/mL | MIP-1b ([1]; γδT cells from a healthy donor): 19239.36 pg/mL and 20123.08 pg/mL | TNFα ([1]; γδT cells from a healthy donor): 2186.67 pg/mL and 2148.53 pg/mL | sE-selectin ([1]; γδT cells from a healthy donor): 387.87 pg/mL and 373.47 pg/mL | sP-Selectin ([1]; γδT cells from a healthy donor): 3183.34 pg/mL and 3082.95 pg/mL | GMCSF [1, 10]: 2172.54 pg/mL and 2625.54 pg/mL | ICAM-1 [1, 10]: 729.5 pg/mL and 885.22 pg/mL | IFNγ [1, 10]: 723.16 pg/mL and 791.56 pg/mL | IL-4 [1, 10]: 875.51 pg/mL and 1027.45 pg/mL | IL-13 [1, 10]: 478.3 pg/mL and 602.86 pg/mL | IL-17A [1, 10]: 9.23 pg/mL and 10.85 pg/mL | MIP-1a [1, 10]: 321.54 pg/mL and 383.73 pg/mL | MIP-1b [1, 10]: 9453.77 pg/mL and 12721.52 pg/mL | TNFα [1, 10]: 2973.1 pg/mL and 3657.48 pg/mL | sE-selectin [1, 10]: 373.32 pg/mL and 372.16 pg/mL | sP-Selectin [1, 10]: 2542.23 pg/mL and 2775.99 pg/mL | binding of pAg to BTN2A1 B30.2 domain [2]: no clear interaction | sensitivity for HMBPP relative to IPP [3]: ~1000 fold

soluble BTN2A1 ectodomain (IgV and IgC domains; Gln29 to Ser245) with C-terminal linker, Avi-tag and His6-tag (ligand)
Kd [4]: 50 µM | Kd [5]: 50.4 µM

B1: human BTNL8, isoform 1, on cells (ligand, UniProt Q6UX41 18-500, looked up)
chain: QWQVFGPDKPVQALVGEDAAFSCFLSPKTNAEAMEVRFFRGQFSSVVHLYRDGKDQPFMQMPQYQGRTKLVKDSIAEGRISLRLENITVLDAGLYGCRISSQSYYQKAIWELQVSALGSVPLISITGYVDRDIQLLCQSSGWFPRPTAKWKGPQGQDLSTDSRTNRDMHGLFDVEISLTVQENAGSISCSMRHAHLSREVESRVQIGDTFFEPISWHLATKVLGILCCGLFFGIVGLKIFFSKFQWKIQAELDWRRKHGQAELRDARKHAVEVTLDPETAHPKLCVSDLKTVTHRKAPQEVPHSEKRFTRKSVVASQSFQAGKHYWEVDGGHNKRWRVGVCRDDVDRRKEYVTLSPDHGYWVLRLNGEHLYFTLNPRFISVFPRTPPTKIGVFLDYECGTISFFNINDQSLIYTLTCRFEGLLRPYIEYPSYNEQNGTPIVICPVTQESEKEASWQRASAIPETSNSESSSQATTPFLPRGEM
notes: whole, on cells; also called B7NL8
binding result [6]: no binding

B2: Hu34C1: antagonist anti-BTN2A1 mAb; VH SEQ ID NO: 100, VL SEQ ID NO: 101; human IgG4 Fab, murine IgG2a Fc (antibody, V domains shown)
VH: EVQLLESGGGLVQPGGSLRLSCAASGFTFSHYPMIWVRQAPGKGLEWVSSISSSGGSTHYADSVKGRFTISRDNSKNTLYLQMNSLRAEDTAMYYCAALVSDTDFWGQGTLVTVSS
VL: DIQMTQSPATLSVSPGESTTLSCRASQSVTSNLAWYQQKPGQAPSLLIYGASTRATGIPARFSGSGSGTEFTLTISSLQSEDSAVYYCQQYNNWPRTFGQGTKVEIK
modifications: human IgG4 Fab, murine IgG2a Fc constant regions; amino acid sequence of Hu34C VH; amino acid sequence of Hu34C VL
cytokine/chemokine secretion, in words ([1]; cancer patient derived Vγ9Vδ2 cells): reduction in levels of GMCSF, ICAM1 (to undetectable levels), IFNγ, IL-13, MIP1α and MIP1β as well as sE-selectin | cytokine/chemokine secretion, in words ([1]; healthy donor derived Vγ9Vδ2 cells): downregulation of MIP1α and b as well as GMCSF | ICAM-1 ([1]; γδT cells from a healthy donor): 0.1 pg/mL | IFNγ ([1]; γδT cells from a healthy donor): 0.1 pg/mL | IL-4 ([1]; γδT cells from a healthy donor): 0.1 pg/mL | IL-8 ([1]; γδT cells from a healthy donor): 0.1 pg/mL | IL-13 ([1]; γδT cells from a healthy donor): 0.1 pg/mL | IL-17A ([1]; γδT cells from a healthy donor): 0.1 pg/mL | MIP-1a ([1]; γδT cells from a healthy donor): 9.16 pg/mL and 7.83 pg/mL | MIP-1b ([1]; γδT cells from a healthy donor): 50.62 pg/mL and 43.18 pg/mL | TNFα ([1]; γδT cells from a healthy donor): 0.1 pg/mL | sE-selectin ([1]; γδT cells from a healthy donor): 0.1 pg/mL | sP-Selectin ([1]; γδT cells from a healthy donor): 0.1 pg/mL | GMCSF [1, 10]: 8.09 pg/mL and 9.22 pg/mL | ICAM-1 [1, 10]: 0.1 pg/mL | IFNγ [1, 10]: 0.1 pg/mL | IL-4 [1, 10]: 0.1 pg/mL | IL-8 [1, 10]: 0.1 pg/mL | IL-13 [1, 10]: 16.14 pg/mL and 14.86 pg/mL | IL-17A [1, 10]: 0.1 pg/mL | MIP-1a [1, 10]: 50.75 pg/mL and 51.38 pg/mL | MIP-1b [1, 10]: 239.49 pg/mL and 252.05 pg/mL | TNFα [1, 10]: 0.1 pg/mL | sP-Selectin [1, 10]: 0.1 pg/mL | indicators of TCR-dependent activation (CD25 induction, CD3 downregulation, IFN-γ and TNF production) [7]: significantly inhibited | HMBPP-induced activation (CD25 upregulation, IFN-γ production) [8]: failed to upregulate CD25 and produce IFN-γ

B3: anti-BTN2A1 antibody 259 (antibody, V domains shown)
VH: EVQLLESGGGLVQPGGSLRLSCAASGFTFSSYAMQWVRQAPGKGLEWVSRIGPSGGGTMYADSVKGRFTISRDNSKNTLYLQMNSLRAEDMAVYYCARDLGGLSVLFDYWGQGTLVTVSS
VL: QSELTQPPSASETPGQRVTISCSGSSSNIGSNTVSWFQQLPGSAPRLLIYNDHRRPSGVPDRFSGSKSGTSASLVISGLQSQDEADYYCSAWDDSLNGVVFGGGTKLTVL
binding result [9]: no binding

Source: patent publication US20220273713A1, “METHOD OF INHIBITING OR ACTIVATING GAMMA DELTA T CELLS” (The University of Melbourne, priority 2019, published 2022)
